Assay results taken from patent US20230235054A1 (BIOATLA, published 2023).
Where a chain is given by its changes, count along the chain named.

B1: BAP-143-wildtype (antibody, V domains shown)
VH: EVQLVESGGGLVQPGGSLRLSCAASGFTFSSYNMNWVRQAPGKGLEWVSYISSSSSTIYYADSVKGRFTISRDNAKNSLSLQMNSLRDEDTAVYYCARAYYYGMDVWGQGTTVTVSS
VL: DIQMTQSPSSVSASVGDRVTITCRASQGISGWLAWYQQKPGKAPKFLIYAASTLQSGVPSRFSGSGSGTDFTLTISSLQPEDFATYYCQQANSFPPTFGGGTKVEIK
notes: 150 kDa used in SPR; also called BAP143-00-00; benchmark (BM)
B2: BAP-143-00-01 (antibody, V domains shown)
VH: B1 VH
VL: B1 VL with L33E
notes: Used as a conjugate with a linker payload (CAB ADC)
B3: BAP-143-00-03 (antibody, V domains shown)
VH: B1 VH
VL: B1 VL with P96D
notes: as for B2
B4: BAP-143-00-04 (antibody, V domains shown)
VH: B1 VH with M34D
VL: B1 VL
notes: as for B2
B5: BAP-143-00-05 (antibody, V domains shown)
VH: B1 VH with R98E
VL: B1 VL
notes: as for B2
B6: BAP-143-00-06 (antibody, V domains shown)
VH: B1 VH with M104D
VL: B1 VL
notes: as for B2
B7: BAP-143-07-03-12 (antibody, V domains shown)
VH: B1 VH with V106K
VL: B1 VL with L33E
notes: as for B2
B8: BAP-143-06-33-03 (antibody, V domains shown)
VH: QVQLVQSGAEVKKPGASVKVSCKASGFTFSSYNMNWVRQARGQRLEWIGYISSSSSTIYYADSVKGRFTISRDNSKNTLYLQMNSLRAEDTAVYYCARAYYYGMDKWGQGTLVTVSS
VL: B1 VL with F94E
notes: as for B2
B9: BAP-143-06-24-16 (antibody, V domains shown)
VH: EVQLVQSGAEVKKPGATVKISCKVSGFTFSSYNMNWIRQSPSRGLEWLGYISSSSSTIYYADSVKGRFTISRDNSKNTLYLQMNSLRAEDTAVYYCARAYYYGDDVWGQGTLVTVSS
VL: B1 VL with R24H
notes: as for B2
B10: BAP-143-06-33-16 (antibody, V domains shown)
VH: B9 VH
VL: B1 VL with L33E
notes: as for B2

Key:
[1] = biological target: T1, recombinant human Nectin4 antigen (human, UniProt Q96NY8 32-349); experiment: ELISA, coated antigen, PSB pH 7.4
T1 construct: construct not described
T1 sequence (looked up): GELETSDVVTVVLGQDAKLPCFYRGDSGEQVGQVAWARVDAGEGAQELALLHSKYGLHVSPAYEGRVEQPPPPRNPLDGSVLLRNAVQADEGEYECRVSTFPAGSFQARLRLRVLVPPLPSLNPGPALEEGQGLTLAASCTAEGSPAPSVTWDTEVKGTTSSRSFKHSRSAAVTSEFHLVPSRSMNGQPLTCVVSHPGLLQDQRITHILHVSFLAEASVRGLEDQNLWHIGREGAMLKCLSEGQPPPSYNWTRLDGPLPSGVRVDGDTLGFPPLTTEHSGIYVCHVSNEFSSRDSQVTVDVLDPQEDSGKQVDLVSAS
Procedure: 1) Coat ELISA plates with 100 μL of 1 μg/mL recombinant human Nectin4 antigen or cynoNectin4 antigen in carbonate-bicarbonate coating buffer. […] 2) Cover plates with sealing film and incubate overnight at 4° C. [0444] 3) Decant plates and tap out residual liquid on a stack of paper towels. [0445] 4) Wash wells twice by dispensing 200 μL of pH 6.0 or pH 7.4 ELISA incubation buffer to the wells and completely aspirate the contents. [0446] 5) Add 200 μL of pH 6.0 or pH 7.4 ELISA incubation buffer to the wells. Cover with sealing film and place the plate onto a plate shaker set to 50 rpm for 60 minutes at room temperature. [0447] 6) Decant plates and tap out residual liquid on a stack of paper towels. […] 7) Serially dilute test articles in 3-fold dilutions starting at 3000 ng/mL in pH 6.0 or pH 7.4 ELISA incubation buffer. […] 8) Add 100 μL/well of diluted test articles to the plates [0450] 9) Cover with sealing film and place the plates onto a plate shaker set to 50 rpm for 60 minutes at room temperature. [0451] 10) Decant plates and tap out residual liquid on a stack of paper towels. [0452] 11) Wash wells three times by dispensing 200 μL of pH 6.0 or pH 7.4 ELISA wash buffer to the wells and completely aspirate the contents. […] 12) Dilute the HRP secondary antibody at 1:2500 in pH 6.0 or pH 7.4 ELISA incubation buffer. [0454] […]

[2] = biological target: T2, huNectin4-His (human, UniProt Q96NY8 32-349); experiment: SPR, huNectin4-His immobilized, pH 6.0
T2 construct: Immobilized on the SPR chip; also called humanNectin4; human Nectin4; not shown: His tag
T2 sequence (looked up): T1 sequence (looked up)
Procedure: Binding kinetics of anti-Nectin4 antibodies were measured by surface plasmon resonance using a SPR2/4 instrument (Sierra Sensors, Hamburg, Germany) and flat amine sensor chips. The SPR sensor contained four flow cells (FC1-FC4), each of which was addressed individually or in groups. huNectin4-His was immobilized in FC2, and cynoNectin4-mFc in FC4. No protein was immobilized in FC1 and FC3 which were used as control surfaces for FC2 and FC4, respectively.
All injections were done at a flow rate of 25 μL/min at 25° C. The sensor surface was activated with 1-ethyl-3-(3-dimethylaminopropyl)-carbodiimide (EDC) and N-hydroxysuccinimide (NHS) (200 mM/50 mM) for 480 seconds. HuNectin4-His (2 μg/mL in 10 mM NaAc, pH4.5) was injected for 480s and the surface was inactivated by injecting 1M ethanolamine-HCl for 480s. CynoNectin4 was immobilized using the same conditions as described for huNectin4-His, except that the cynoNectin4 was diluted into 10 mM NaAc buffer having pH 5.0. The control surface was activated and deactivated using the same conditions, but without injecting protein. PBST buffer (PBS pH 7.4 with 0.05% TWEEN20™) was used as running buffer for the surface preparation. The running solution was switched to PBST with 30 mM sodium bicarbonate with the pH adjusted as indicated in the figures before the analyte injections. The instrument was equilibrated with the running solution for one hour before the first analyte injection.
The off-rate was measured for 360s. The chip surface was regenerated after each cycle of interaction analysis by injecting 6 μL of 10 mM glycine (pH 2.0). Flow cells 1 and 3 without immobilized protein were used as control surfaces for reference subtraction.

[3] = biological target: T3, human Nectin-4 on cells (human, UniProt Q96NY8 32-510); experiment: FACS, HEK293 cells expressing human Nectin-4
T3 construct: whole, on cells; also called HEK293 cells expressing human Nectin-4; T47D cells that express human Nectin-4
T3 sequence (looked up): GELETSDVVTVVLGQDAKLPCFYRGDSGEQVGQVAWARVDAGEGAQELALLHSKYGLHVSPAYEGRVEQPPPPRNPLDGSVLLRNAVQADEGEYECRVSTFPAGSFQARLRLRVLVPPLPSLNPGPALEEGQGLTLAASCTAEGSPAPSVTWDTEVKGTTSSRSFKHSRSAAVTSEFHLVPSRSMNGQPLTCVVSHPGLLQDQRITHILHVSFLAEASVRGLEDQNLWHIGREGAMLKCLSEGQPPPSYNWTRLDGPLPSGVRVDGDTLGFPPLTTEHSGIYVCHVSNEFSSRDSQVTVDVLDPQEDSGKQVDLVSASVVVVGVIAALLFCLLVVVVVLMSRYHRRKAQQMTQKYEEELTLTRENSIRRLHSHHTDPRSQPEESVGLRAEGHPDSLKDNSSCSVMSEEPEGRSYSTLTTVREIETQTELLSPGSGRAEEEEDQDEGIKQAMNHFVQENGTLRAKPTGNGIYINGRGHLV
Procedure: FACS analysis was carried out using HEK293 cells expressing human Nectin-4.

[4] = biological target: T1, recombinant human Nectin4 antigen; experiment: ELISA, ratio of EC50s
Procedure: (§1) 1) Coat ELISA plates with 100 μL of 1 μg/mL recombinant human Nectin4 antigen or cynoNectin4 antigen in carbonate-bicarbonate coating buffer. […] 2) Cover plates with sealing film and incubate overnight at 4° C. [0444] 3) Decant plates and tap out residual liquid on a stack of paper towels. [0445] 4) Wash wells twice by dispensing 200 μL of pH 6.0 or pH 7.4 ELISA incubation buffer to the wells and completely aspirate the contents. [0446] 5) Add 200 μL of pH 6.0 or pH 7.4 ELISA incubation buffer to the wells. Cover with sealing film and place the plate onto a plate shaker set to 50 rpm for 60 minutes at room temperature. [0447] 6) Decant plates and tap out residual liquid on a stack of paper towels. […] 7) Serially dilute test articles in 3-fold dilutions starting at 3000 ng/mL in pH 6.0 or pH 7.4 ELISA incubation buffer. […] 8) Add 100 μL/well of diluted test articles to the plates [0450] 9) Cover with sealing film and place the plates onto a plate shaker set to 50 rpm for 60 minutes at room temperature. [0451] 10) Decant plates and tap out residual liquid on a stack of paper towels. [0452] 11) Wash wells three times by dispensing 200 μL of pH 6.0 or pH 7.4 ELISA wash buffer to the wells and completely aspirate the contents. […] 12) Dilute the HRP secondary antibody at 1:2500 in pH 6.0 or pH 7.4 ELISA incubation buffer. [0454] […] 14) Cover with sealing film and place the plates onto a plate shaker set to 50 rpm for 60 minutes at room temperature. […] 15) Decant plates and tap out residual liquid on a stack of paper towels. […] 16) Wash wells three times by dispensing 200 μL of pH 6.0 or pH 7.4 ELISA wash buffer to the wells and completely aspirate the contents. [0458] 17) Dispense 50 μL per well of the TMB substrate solution into all wells of the plates.

[5] = biological target: T4, cynoNectin4 antigen (cynomolgus (cyno), UniProt A0A2K5WES1 32-349); experiment: ELISA, ratio of EC50s
T4 construct: construct not described; also called cynomolgus (cyno) Nectin-4
T4 sequence: T1 sequence (looked up) with V39A, I230V
Procedure: as §1

| Binder | EC50 [1] | Kd [2] | koff [2] | kon [2] | Ratio (pH 7.4/6.0) of EC50 [3] | EC50 ratio pH 7.4/pH 6.0 [4] | EC50 ratio pH 7.4/6.0 [5] | EC50 ratio pH 7.4/6.0 [4] |
| --- | --- | --- | --- | --- | --- | --- | --- | --- |
| B1 | 0.0216 µg/mL | 0.149 nM |  |  |  |  |  |  |
| B2 |  | 0.739 nM | 0.000771 s⁻¹ | 1.04e+06 M⁻¹ s⁻¹ | 2.2 |  |  |  |
| B3 |  |  |  |  |  | 7.13 |  |  |
| B4 |  |  |  |  |  | 2.37 |  |  |
| B5 |  |  |  |  |  | 3.2 |  |  |
| B6 |  |  |  |  |  | 2.83 |  |  |
| B7 |  | 0.69 nM | 0.000869 s⁻¹ | 1.26e+06 M⁻¹ s⁻¹ | 2 |  | 3.6 |  |
| B8 |  |  |  |  | 2.8 |  | 1.83 |  |
| B9 | 0.133 µg/mL | 0.0944 nM | 0.00033 s⁻¹ | 3.5e+06 M⁻¹ s⁻¹ | 1.4 |  | 1.08 | 3.63 |
| B10 |  | 0.11 nM | 0.000195 s⁻¹ | 1.77e+06 M⁻¹ s⁻¹ | 1.5 |  |  |  |
